This note sets out measurements from article PMC9169922.

Data set [1] concerns the target T1, DNA polymerase alpha catalytic domain (PolαCD) (human, UniProt P09884 338-1250). Nature of the data set: crystal structure.
For data set [2], the target named is T1, DNA polymerase alpha catalytic domain …. As to the kind of experiment: BLI. For orientation: Biolayer interferometry detects binding as a change in optical thickness at a sensor tip.
For data set [3] the target is unchanged. Nature of the data set: BLI. This is another data set of the same source.
For data set [4] the target is unchanged. As to the kind of experiment: BLI. The source holds these as a separate data set.
Data set [5] has the same target. As to the kind of experiment: BLI. The source holds these as a separate data set.
Data set [6] has the same target. Nature of the data set: BLI. This is another data set of the same source.

Read-outs that look alike come from different tables or passages of the source.

T1 sequence (P09884 338-1250): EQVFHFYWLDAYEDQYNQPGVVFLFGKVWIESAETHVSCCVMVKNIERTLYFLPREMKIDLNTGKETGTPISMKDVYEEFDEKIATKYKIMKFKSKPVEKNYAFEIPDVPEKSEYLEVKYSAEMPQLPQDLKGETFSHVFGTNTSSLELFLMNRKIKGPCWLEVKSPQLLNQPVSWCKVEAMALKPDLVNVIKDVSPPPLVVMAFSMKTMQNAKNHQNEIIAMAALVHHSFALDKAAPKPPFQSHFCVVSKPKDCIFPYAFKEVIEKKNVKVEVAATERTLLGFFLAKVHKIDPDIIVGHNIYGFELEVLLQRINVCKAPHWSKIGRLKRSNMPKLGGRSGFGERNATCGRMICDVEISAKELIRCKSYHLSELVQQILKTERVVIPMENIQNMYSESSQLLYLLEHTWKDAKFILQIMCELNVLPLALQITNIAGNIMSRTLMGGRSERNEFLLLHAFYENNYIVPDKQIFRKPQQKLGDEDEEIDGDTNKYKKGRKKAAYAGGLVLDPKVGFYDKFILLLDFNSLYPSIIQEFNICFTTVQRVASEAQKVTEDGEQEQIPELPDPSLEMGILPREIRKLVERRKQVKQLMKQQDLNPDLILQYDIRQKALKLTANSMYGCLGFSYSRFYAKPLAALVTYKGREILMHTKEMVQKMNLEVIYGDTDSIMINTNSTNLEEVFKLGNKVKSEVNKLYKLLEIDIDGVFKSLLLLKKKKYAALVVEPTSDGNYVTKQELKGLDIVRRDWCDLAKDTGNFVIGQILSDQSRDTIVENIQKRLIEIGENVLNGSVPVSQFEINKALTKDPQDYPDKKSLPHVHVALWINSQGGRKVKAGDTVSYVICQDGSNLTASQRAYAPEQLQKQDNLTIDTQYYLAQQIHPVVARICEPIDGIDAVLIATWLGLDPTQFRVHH

B1: T-C mismatch DNA template:RNA primer (crystal) (DNA:RNA)
DNA: ATAGTCGCTCCAGGC
RNA: GCCUGGAGCGC
modifications: RNA primer with 3'-terminal dideoxycytidine
Turning to B1, in data set [1], the binding result is given as “binds”.

B2: A-C mismatch template:primer (dsDNA)
DNA 1: AATACATAAACGCTCCAGGCAAT
DNA 2: GCCTGGAGCGC
modifications: primer 3'-terminal dideoxycytidine
Consider B2, for which the equilibrium dissociation constant (Kd) in data set [2] came to 12.6 ± 1.3 nM; in data set [3], 987 ± 18 nM.

B3: G-C template:primer (matched) (dsDNA)
DNA 1: AATACATAAGCGCTCCAGGCAAT
DNA 2: GCCTGGAGCGC
modifications: primer 3'-terminal dideoxycytidine
For the molecule B3, the dissociation constant (Kd) was 40.8 ± 1.6 nM in data set [2]; 1400 ± 130 nM in data set [3]; 30.2 ± 1.3 nM in data set [4]; 1200 nM in data set [5]; 168 ± 17 nM in data set [6].

B4: C-C mismatch template:primer (dsDNA)
DNA 1: AATACATAACCGCTCCAGGCAAT
DNA 2: GCCTGGAGCGC
modifications: primer 3'-terminal dideoxycytidine
In the case of B4, the Kd in data set [2] worked out at 11.7 ± 0.42 nM; in data set [3] it was 646 ± 11 nM.

B5: T-C mismatch template:primer (dsDNA)
DNA 1: AATACATAATCGCTCCAGGCAAT
DNA 2: GCCTGGAGCGC
modifications: primer 3'-terminal dideoxycytidine
As to B5, the Kd in data set [2] turned out to be 14.2 ± 0.13 nM; in data set [3], 462 ± 43 nM.

Broadly, the Kd is the concentration at which binding is half-saturated. Higher therefore signals weaker binding.
